Assay results: US20120148499A1
Primed or numbered codes have the meaning given here. 5,6FAM″ = fluorescein-5(6)-carbonyl on the lysine (K(5,6FAM))

Target: purified myelin basic protein (MBP)
Experiment: peptide binding to MBP-crosslinked beads against control beads without MBP

B1: acetyl-…(5,6FAM)-amide (peptide)
peptide: Ac-SHSTYTDWLNFWAWPGK(5,6FAM″)-NH2
- fold increase in binding to MBP crosslinked beads over control beads (no MBP): 10 fold
